Experimental data reported in the supplement of paper PMC9112550, “Optimization of the antimicrobial peptide Bac7 by deep mutational scanning” (BMC Biology, 2022).

test system: Escherichia coli TOP10; test: shrunken log2 fold change of peptide-encoding DNA abundance (4.5 h post-induction vs induction); higher = less antimicrobial activity (less host growth inhibition); details: time post-induction: 4.5 h; library: site-saturation at positions 5, 18, 19, 20
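Further: peptides expressed intracellularly from a pBAD plasmid library in pooled LB shake-flask culture, induced with 0.3% L-arabinose, DNA abundance read by NGS, three biological replicates, DESeq2 with apeglm shrinkage.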

Sequence | shrunken log2 fold change
RRIRVRPPRLPRPRPRPIIQPRP | -0.28
RRIRVRPPRLPRPRPRPIKPPRP | -0.15
RRIRVRPPRLPRPRPRPILYPRP | 0.0692
RRIRVRPPRLPRPRPRPIMLPRP | -0.122
RRIRVRPPRLPRPRPRPINTPRP | -1.07
RRIRVRPPRLPRPRPRPIQFPRP | -0.0307
RRIRVRPPRLPRPRPRPIRHPRP | -0.112
RRIRVRPPRLPRPRPRPISGPRP | -0.118
RRIRVRPPRLPRPRPRPITEPRP | -0.0116
RRIRVRPPRLPRPRPRPITHPRP | -0.171
RRIRVRPPRLPRPRPRPIVCPRP | -0.0744
RRIRVRPPRLPRPRPRPIVNPRP | -0.11
RRIRVRPPRLPRPRPRPIWIPRP | 0.0696
RRIRVRPPRLPRPRPRPIWSPRP | 0.0334
RRIRVRPPRLPRPRPRPIYRPRP | -0.491
RRIRVRPPRLPRPRPRPKCAPRP | 0.0145
RRIRVRPPRLPRPRPRPKCSPRP | -0.065
RRIRVRPPRLPRPRPRPKEHPRP | 0.0755
RRIRVRPPRLPRPRPRPKFEPRP | 0.12
RRIRVRPPRLPRPRPRPKHDPRP | -0.31
RRIRVRPPRLPRPRPRPKHFPRP | 0.0968
RRIRVRPPRLPRPRPRPKIEPRP | 0.132
RRIRVRPPRLPRPRPRPKKQPRP | 0.216
RRIRVRPPRLPRPRPRPKLYPRP | -0.0874
RRIRVRPPRLPRPRPRPKMNPRP | -0.262

Sequence | shrunken log2 fold change
RRIRVRPPRLPRPRPRPKMWPRP | 0.0893
RRIRVRPPRLPRPRPRPKQCPRP | -0.141
RRIRVRPPRLPRPRPRPKRAPRP | 0.553
RRIRVRPPRLPRPRPRPKRYPRP | -0.078
RRIRVRPPRLPRPRPRPKSAPRP | 0.172
RRIRVRPPRLPRPRPRPKSHPRP | 1.35
RRIRVRPPRLPRPRPRPKTKPRP | 0.0179
RRIRVRPPRLPRPRPRPKTVPRP | -0.012
RRIRVRPPRLPRPRPRPKVRPRP | 0.0291
RRIRVRPPRLPRPRPRPKWGPRP | 0.155
RRIRVRPPRLPRPRPRPKWIPRP | -0.114
RRIRVRPPRLPRPRPRPKWLPRP | 0.0936
RRIRVRPPRLPRPRPRPLAMPRP | 0.209
RRIRVRPPRLPRPRPRPLCFPRP | 0.258
RRIRVRPPRLPRPRPRPLEMPRP | -0.308
RRIRVRPPRLPRPRPRPLGMPRP | -0.481
RRIRVRPPRLPRPRPRPLGSPRP | -0.115
RRIRVRPPRLPRPRPRPLHGPRP | 0.0379
RRIRVRPPRLPRPRPRPLHWPRP | 0.243
RRIRVRPPRLPRPRPRPLIGPRP | 0.0681
RRIRVRPPRLPRPRPRPLKSPRP | -0.137
RRIRVRPPRLPRPRPRPLLDPRP | 0.157
RRIRVRPPRLPRPRPRPLMKPRP | -0.269
RRIRVRPPRLPRPRPRPLMTPRP | -0.24
RRIRVRPPRLPRPRPRPLNFPRP | -0.249

Sequence | shrunken log2 fold change
RRIRVRPPRLPRPRPRPLNWPRP | 1.03
RRIRVRPPRLPRPRPRPLQPPRP | 0.158
RRIRVRPPRLPRPRPRPLREPRP | 0.379
RRIRVRPPRLPRPRPRPLSWPRP | 0.0819
RRIRVRPPRLPRPRPRPLTFPRP | -0.271
RRIRVRPPRLPRPRPRPLVWPRP | 0.115
RRIRVRPPRLPRPRPRPLWGPRP | 0.0188
RRIRVRPPRLPRPRPRPLWQPRP | 2.32
RRIRVRPPRLPRPRPRPLYFPRP | -0.53
RRIRVRPPRLPRPRPRPMAWPRP | -0.114
RRIRVRPPRLPRPRPRPMDEPRP | 0.422
RRIRVRPPRLPRPRPRPMDYPRP | -0.0122
RRIRVRPPRLPRPRPRPMFEPRP | 0.0774
RRIRVRPPRLPRPRPRPMFKPRP | -0.24
RRIRVRPPRLPRPRPRPMGPPRP | 0.24
RRIRVRPPRLPRPRPRPMGRPRP | -0.0203
RRIRVRPPRLPRPRPRPMHDPRP | -0.134
RRIRVRPPRLPRPRPRPMHRPRP | -0.0728
RRIRVRPPRLPRPRPRPMIVPRP | 0.109
RRIRVRPPRLPRPRPRPMLKPRP | -0.293
RRIRVRPPRLPRPRPRPMLNPRP | -0.135
RRIRVRPPRLPRPRPRPMMDPRP | -0.154
RRIRVRPPRLPRPRPRPMNIPRP | -0.604
RRIRVRPPRLPRPRPRPMPWPRP | 0.056
RRIRVRPPRLPRPRPRPMSRPRP | 0.0217
